These results are taken from publication PMC5389854, “Functional analysis of the GmESR1 gene associated with soybean regeneration”.

The target of the data set is GmESR1 (Glycine max cv. Dongnong 50, UniProt K7K6B8 5-391). Kind of data set: EMSA; EMSA as in Kass et al. (2000); buffer, salt, pH and temperature not stated. Conditions: protein: recombinant; tags: His (pET-29b); label: digoxigenin-ddUTP; blunt.
GmESR1, sequence (K7K6B8 entry or part of it): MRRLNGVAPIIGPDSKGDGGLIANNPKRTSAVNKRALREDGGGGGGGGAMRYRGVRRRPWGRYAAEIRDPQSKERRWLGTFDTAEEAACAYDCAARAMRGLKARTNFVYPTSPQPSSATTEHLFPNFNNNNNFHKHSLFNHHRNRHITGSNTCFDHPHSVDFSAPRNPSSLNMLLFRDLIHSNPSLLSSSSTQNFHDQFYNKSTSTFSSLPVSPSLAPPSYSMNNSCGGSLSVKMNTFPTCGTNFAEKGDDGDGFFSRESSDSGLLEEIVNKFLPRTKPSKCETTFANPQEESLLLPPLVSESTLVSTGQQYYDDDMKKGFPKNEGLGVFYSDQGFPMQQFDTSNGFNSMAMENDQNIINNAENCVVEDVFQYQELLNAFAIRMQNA

B1: mGCC-box probe (dsDNA)
DNA 1: ATCCATAAGATCCTCCACTAAAATAAGACCGATCAA
DNA 2: TTGATCGGTCTTATTTTAGTGGAGGATCTTATGGAT
B1: the binding result is “no binding”.
